From IntAct's records for PubMed 22070932

B1: DAZ-associated protein 2 (Homo sapiens), Q15038 (parent)
chain: MNSKGQYPTQPTYPVQPPGNPVYPQTLHLPQAPPYTDAPPAYSELYRPSFVHPGAATVPTMSAAFPGASLYLPMAQSVAVGPLGSTIPMAYYPVGPIYPPGSTVLVEGGYDAGARFGAGATAGNIPPPPPGCPPNAAQLAVMQGANVLVTQRKGNFFMGGSDGGYTIW
partner: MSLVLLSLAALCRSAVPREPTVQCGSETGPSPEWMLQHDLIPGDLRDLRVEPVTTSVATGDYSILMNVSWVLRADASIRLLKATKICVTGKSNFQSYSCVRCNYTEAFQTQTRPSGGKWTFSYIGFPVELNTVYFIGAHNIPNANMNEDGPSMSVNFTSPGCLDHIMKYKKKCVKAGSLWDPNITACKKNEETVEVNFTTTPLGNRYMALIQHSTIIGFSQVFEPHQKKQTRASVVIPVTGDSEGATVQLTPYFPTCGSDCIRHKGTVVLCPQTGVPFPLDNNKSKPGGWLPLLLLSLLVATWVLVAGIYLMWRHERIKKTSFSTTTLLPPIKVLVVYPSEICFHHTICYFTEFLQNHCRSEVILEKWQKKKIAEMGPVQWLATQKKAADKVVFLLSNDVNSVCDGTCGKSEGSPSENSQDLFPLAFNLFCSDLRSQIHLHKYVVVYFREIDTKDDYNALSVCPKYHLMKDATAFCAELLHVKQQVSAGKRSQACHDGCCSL
B2: DAZ-associated protein 2 (Homo sapiens), Q15038 (parent)
chain: B1 chain

Variants of: B1
Settings: with IL17RB

Row | effect of a mutation on the interaction | Variant
1 | disrupting interaction strength | Y42A;Y165A
2 | decreasing interaction strength | Y42A
3 | decreasing interaction strength | Y165A

Variants of: B2
Settings: with smuf2_human SMURF2, Q9HAU4
smuf2_human SMURF2, Q9HAU4, sequence (Q9HAU4 whole entry): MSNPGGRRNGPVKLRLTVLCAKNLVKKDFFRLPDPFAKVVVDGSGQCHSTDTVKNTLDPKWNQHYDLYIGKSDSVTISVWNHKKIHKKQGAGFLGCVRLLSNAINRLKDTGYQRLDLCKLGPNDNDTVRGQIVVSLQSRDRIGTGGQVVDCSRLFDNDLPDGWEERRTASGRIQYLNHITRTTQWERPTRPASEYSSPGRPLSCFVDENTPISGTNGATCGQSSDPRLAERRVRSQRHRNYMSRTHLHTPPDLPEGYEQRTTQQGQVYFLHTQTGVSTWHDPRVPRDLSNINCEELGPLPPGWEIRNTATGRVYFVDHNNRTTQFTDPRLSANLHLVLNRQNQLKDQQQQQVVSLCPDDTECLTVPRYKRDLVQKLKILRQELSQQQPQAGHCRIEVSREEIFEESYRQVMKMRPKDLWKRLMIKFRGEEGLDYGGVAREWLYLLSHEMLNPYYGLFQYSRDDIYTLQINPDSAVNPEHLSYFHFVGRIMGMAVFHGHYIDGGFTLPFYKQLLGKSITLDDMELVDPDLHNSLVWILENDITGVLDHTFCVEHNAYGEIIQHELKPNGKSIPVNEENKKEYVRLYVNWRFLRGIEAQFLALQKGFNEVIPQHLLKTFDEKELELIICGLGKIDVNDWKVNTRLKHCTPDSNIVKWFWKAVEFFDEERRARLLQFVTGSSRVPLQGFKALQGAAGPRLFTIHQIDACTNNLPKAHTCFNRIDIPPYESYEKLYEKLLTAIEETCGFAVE

Row | effect of a mutation on the interaction | Variant
4 | disrupting interaction strength | Y42A
